B1: chicken PD-1 protein (receptor)
chain: MALGTSRTMWDSTEAALVVLCVLLLCCNPPLAGCHQVTLFPATLTRPAGSSATFICNISMENSSLEFNLNWYQKTNNSNPQKIAGIIRNIPQKKMEKYRLFNNTPVFKMEILNLHQNDSGFYYCGLITFSRSDKVVESSHSQLVVTEAPEKTNTIDEPSEEESSPPDHIKAVLLGTLLLAGVIVLLLFGYIIINNRRADVQKPSSGNTLAEVKPPVVPVPTVDYGVLEFQRDPHSQVPLETCPAEQTEYATIVFPEEKPITPERGKRHKDERTWQLPSQPC
modifications: labeled using the BLUE-NHS protein labeling kit (NanoTemper)

What was measured:
chicken PD-L1 protein = chicken PD-L1 protein (chicken); experiment: MST
chicken PD-1 protein = biological target: B1; experiment: MST

Kd (chicken PD-L1 protein) | Kd (chicken PD-1 protein) | Binder
2.65 nM | – | B1
– | 9.73 nM | DAGLYHCLIEYGGADYKTINLK [peptide gDK2-3]

Reference: paper PMC11533547 (Poultry Science, 2024)
